The term Kd denotes the constant that tells how readily two partners part at equilibrium.

One assay has as its target T1, human C2 S278A (human, UniProt P06681 21-752).
T1 sequence: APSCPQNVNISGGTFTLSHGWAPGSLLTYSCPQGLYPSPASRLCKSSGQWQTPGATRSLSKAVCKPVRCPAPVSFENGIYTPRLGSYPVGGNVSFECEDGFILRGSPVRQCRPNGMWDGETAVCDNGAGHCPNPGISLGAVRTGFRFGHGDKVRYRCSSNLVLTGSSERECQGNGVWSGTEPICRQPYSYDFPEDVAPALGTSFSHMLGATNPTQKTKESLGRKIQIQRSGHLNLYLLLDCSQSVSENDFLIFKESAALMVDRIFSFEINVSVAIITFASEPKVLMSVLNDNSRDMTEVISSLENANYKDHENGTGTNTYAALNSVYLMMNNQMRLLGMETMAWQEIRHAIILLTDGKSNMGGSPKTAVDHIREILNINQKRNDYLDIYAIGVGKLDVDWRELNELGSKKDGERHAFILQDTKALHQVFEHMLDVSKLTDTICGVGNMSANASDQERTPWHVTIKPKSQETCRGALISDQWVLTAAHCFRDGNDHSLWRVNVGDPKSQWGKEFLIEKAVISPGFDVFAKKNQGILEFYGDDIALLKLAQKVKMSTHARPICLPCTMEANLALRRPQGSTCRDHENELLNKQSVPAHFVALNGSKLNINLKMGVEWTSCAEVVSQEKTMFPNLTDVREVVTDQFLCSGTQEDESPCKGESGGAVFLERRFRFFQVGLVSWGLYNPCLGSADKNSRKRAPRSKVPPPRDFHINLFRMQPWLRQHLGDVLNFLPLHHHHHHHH
The assay is described as follows: SPR, antibody captured, C2 as analyte.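 Also: biacore at 37 °C, anti-C2 mAbs held by immobilised goat anti-human IgG, C2 alanine or serine mutants injected, double-referenced sensorgrams fitted to a 1:1 kinetic or steady-state model.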 For orientation: SPR reads the build-up and loss of mass on a sensor chip optically.

Another assay has as its target T2, human C2 K430A (human, UniProt P06681 21-752).
T2 sequence: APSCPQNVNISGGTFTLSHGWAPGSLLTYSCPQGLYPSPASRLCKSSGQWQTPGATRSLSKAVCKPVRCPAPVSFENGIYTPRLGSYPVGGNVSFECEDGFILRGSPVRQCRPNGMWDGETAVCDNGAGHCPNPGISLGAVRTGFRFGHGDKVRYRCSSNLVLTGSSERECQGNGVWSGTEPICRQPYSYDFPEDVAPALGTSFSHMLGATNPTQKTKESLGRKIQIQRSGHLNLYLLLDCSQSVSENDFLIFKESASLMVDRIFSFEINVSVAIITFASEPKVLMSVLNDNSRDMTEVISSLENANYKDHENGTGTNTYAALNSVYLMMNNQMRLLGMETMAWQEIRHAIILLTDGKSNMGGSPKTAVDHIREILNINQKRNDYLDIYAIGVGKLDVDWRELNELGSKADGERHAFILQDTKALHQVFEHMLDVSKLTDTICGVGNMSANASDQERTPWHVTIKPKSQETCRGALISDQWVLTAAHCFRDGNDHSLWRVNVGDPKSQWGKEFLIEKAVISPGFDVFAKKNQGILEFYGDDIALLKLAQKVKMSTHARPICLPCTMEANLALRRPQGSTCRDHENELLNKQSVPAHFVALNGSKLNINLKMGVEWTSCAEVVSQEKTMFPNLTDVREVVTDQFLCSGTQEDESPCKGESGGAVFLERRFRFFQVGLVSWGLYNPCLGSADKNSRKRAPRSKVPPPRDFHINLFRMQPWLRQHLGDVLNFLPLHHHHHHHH
Kind of assay: SPR, KD relative to WT C2.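 Also: biacore SPR at 37 °C, anti-C2 mAbs captured via immobilised goat anti-human IgG, C2 alanine or serine surface mutants as analytes, 1:1 model fitted, double-referenced sensograms.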

The next assay deals with T3, human C2 P723A (human, UniProt P06681 21-752).
T3 sequence: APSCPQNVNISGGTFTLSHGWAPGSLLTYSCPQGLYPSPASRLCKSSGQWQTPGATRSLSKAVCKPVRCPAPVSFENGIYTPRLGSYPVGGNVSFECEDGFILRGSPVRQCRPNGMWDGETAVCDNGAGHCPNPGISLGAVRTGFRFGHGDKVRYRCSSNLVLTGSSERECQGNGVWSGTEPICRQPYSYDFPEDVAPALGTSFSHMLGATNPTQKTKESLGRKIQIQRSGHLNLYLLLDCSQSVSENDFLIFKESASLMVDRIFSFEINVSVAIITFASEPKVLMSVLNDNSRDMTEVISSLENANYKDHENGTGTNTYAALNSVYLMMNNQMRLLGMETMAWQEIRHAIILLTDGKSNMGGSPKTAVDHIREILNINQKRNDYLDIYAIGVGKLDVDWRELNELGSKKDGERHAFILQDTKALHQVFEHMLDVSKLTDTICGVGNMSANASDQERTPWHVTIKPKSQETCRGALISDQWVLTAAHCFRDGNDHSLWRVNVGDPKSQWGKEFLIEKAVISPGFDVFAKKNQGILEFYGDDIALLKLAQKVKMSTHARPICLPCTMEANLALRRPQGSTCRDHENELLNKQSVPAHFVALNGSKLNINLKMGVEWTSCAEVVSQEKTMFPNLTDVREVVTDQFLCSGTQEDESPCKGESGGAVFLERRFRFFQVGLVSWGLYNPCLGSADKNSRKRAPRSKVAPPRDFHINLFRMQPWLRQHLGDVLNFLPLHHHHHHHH
The assay is described as follows: SPR, KD relative to WT C2.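 Also: biacore SPR at 37 °C, anti-C2 mAbs captured via immobilised goat anti-human IgG, C2 alanine or serine surface mutants as analytes, 1:1 model fitted, double-referenced sensograms.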

The target of a further assay is T4, human C2 M316A (human, UniProt P06681 21-752).
T4 sequence: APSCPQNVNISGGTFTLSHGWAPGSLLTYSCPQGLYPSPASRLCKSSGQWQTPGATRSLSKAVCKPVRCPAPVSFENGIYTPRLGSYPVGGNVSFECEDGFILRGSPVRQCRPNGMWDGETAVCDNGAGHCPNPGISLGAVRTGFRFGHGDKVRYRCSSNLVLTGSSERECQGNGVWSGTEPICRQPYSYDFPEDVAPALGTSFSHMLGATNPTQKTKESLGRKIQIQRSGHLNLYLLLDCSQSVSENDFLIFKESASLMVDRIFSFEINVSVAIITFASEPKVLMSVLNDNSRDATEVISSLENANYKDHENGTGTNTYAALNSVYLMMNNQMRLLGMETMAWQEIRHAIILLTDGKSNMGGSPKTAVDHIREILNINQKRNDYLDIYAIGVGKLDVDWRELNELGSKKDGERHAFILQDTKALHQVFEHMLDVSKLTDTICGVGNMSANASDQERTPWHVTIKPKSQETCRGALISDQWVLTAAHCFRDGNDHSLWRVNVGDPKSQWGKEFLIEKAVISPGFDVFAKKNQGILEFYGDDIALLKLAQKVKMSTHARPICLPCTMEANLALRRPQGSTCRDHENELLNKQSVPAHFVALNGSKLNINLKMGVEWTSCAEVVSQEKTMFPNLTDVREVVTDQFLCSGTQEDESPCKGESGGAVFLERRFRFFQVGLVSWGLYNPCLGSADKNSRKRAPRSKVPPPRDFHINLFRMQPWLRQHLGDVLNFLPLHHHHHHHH
Kind of assay: SPR, KD relative to WT C2.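 Also: biacore SPR at 37 °C, anti-C2 mAbs captured via immobilised goat anti-human IgG, C2 alanine or serine surface mutants as analytes, 1:1 model fitted, double-referenced sensograms.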

B1: RF16-242 (antibody, human IgG4 S228P, lambda, V domains shown)
VH: EVQLLQSGAEVKKPGESLKISCKGSGYSFTSYWIGWVRQMPGKGLEWMGIIYPGDSDTRYSPSFQGQVTISADKSISTAYLQWSSLKASDTAMYYCARRGHYGDYFDYWGQGTLVTVSS
VL: SYELTQPPSVSVSPGQTARITCSGDALPKKYAYWYHQKSGQAPVLVIYEDRRRPSEIPERFSGSSSGTMATLTITGAQVEDEGVYFCYSRDRAGNQRVFGGGTQLTVLG
notes: pH-dependent anti-C2 antibody from a phage display library
In the case of B1, binding in the assay with human C2 S278A was characterised by a dissociation constant (Kd) of 6.5 nM.

B2: RF16-226 (antibody, human IgG4 S228P, lambda)
heavy: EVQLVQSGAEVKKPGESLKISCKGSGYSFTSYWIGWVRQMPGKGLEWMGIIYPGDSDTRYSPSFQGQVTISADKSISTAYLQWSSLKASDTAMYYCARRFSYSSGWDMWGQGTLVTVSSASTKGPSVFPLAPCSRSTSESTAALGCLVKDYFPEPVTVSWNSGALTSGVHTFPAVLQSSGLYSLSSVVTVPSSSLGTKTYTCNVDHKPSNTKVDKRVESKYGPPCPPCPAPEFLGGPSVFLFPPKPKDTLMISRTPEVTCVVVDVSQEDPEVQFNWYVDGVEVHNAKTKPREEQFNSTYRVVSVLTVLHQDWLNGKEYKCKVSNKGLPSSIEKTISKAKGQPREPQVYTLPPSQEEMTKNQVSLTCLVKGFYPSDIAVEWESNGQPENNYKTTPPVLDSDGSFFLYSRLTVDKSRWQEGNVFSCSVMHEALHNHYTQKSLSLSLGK
light: SYELTQPPSVSVSPGQTARITCSGDALTSKYVAWYQQKSGLAPLLVIYEDTRRPSGIPAKFSGSSSGSVATLTISGAHGDDEADYYCYSTDASGHQRVFGGGTKLTVLSQPKAAPSVTLFPPSSEELQANKATLVCLISDFYPGAVTVAWKADGSPVKAGVETTKPSKQSNNKYAASSYLSLTPEQWKSHRSYSCQVTHEGSTVEKTVAPTECS
notes: pH-dependent anti-C2 antibody from a phage display library; also called WT
For the molecule B2, the Fold diff was 6 fold with human C2 K430A, 12 fold with human C2 P723A and 1 fold with human C2 M316A.

Source of the values: US20220332804A1 (CSL INNOVATION, published 2022).
